Measured values from patent US20100092974A1, “METHODS FOR SCREENING FOR MODULATORS OF CCRL2” (The Board of Trustees of the Leland Stanford Junior …, priority 2008, published 2010).

Columns and labels:
[1] = system: mouse peritoneal mast cells; assay: intracellular calcium mobilization, freshly isolated peritoneal mast cells; format: cell-based; details: 1000 nM chemerin, 100 nM ATP
Experimental: (§1) Chemoattractant-stimulated Ca^2+-mobilization was performed following Alliance for Cell Signaling protocol ID PP00000210. Cells (3×10^6/mL) were loaded with 4 μM Fluo4-AM and 0.16% Pluronic acid F-127 (Molecular Probes) in modified Iscove's medium (Iscove's medium with 1% heat inactivated bovine calf serum and 2 mM L-glutamine, Invitrogen) for 30 minutes at 37° C. The samples were mixed every 10 minutes during loading, washed once, resuspended at up to 2×10^6/mL in the same buffer, and allowed to rest in the dark for 30 minutes at room temperature. Chemoattractant-stimulated change in Ca^2+-sensitive fluorescence of Fluo-4 was measured over real-time with a FACsScan flow cytometer and CellQuest software (BD Biosciences) at room temperature under constant stirring (500 rpm). Fluorescent data were acquired continuously up to 1024 seconds at 1-second intervals. The samples were analyzed for 45 seconds to establish basal state, removed from the nozzle to add the stimuli, and then returned to the nozzle. Mean channel fluorescence over time was analyzed with FlowJo (TreeStar, Ashland, Oreg., USA) software. […] 500 μl of these chemerin-loaded cells were added to mCMKLR1/L1.2 cells loaded with Fluo4-AM, and calcium mobilization was evaluated.

peritoneal macrophages = assay: mCCRL2 expression on peritoneal macrophages cultured 24 h with stimuli; details: 24 h culture with stimulus
mCCRL2 [2] = molecular target: T1, mCCRL2 (Mus musculus, UniProt O35457); assay: in vitro transwell chemotaxis, mCCRL2/L1.2 transfectants; format: cell-based; details: range of doses; CXCL12 and CCL19 act via endogenous CXCR4 and CCR7
T1 construct: The coding regions of mCCRL2, huCCRL2, mCRTH2, and huCCR10 were amplified from genomic DNA; expressed in transfected cells
T1 sequence (O35457 1-360): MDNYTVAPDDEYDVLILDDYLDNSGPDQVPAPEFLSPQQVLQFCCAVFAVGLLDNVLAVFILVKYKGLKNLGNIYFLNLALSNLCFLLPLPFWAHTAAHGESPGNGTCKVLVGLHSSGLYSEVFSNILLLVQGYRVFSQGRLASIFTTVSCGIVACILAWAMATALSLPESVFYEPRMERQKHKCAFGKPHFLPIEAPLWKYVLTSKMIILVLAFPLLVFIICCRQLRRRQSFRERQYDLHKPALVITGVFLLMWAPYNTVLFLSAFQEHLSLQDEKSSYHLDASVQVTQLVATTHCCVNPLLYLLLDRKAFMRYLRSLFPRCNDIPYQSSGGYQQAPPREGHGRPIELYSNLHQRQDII
Experimental: (§2) For migration experiments using cell lines, 2.5×10^5 cells/100 μl chemotaxis media (RPMI+10% fetal calf serum) were added to the top wells of 5-um pore transwell inserts (Costar, Corning, N.Y., USA), and test samples in 600 μl media were added to the bottom wells. After incubating the transwell plates for 1.5 hours at 37° C., the bottom wells were harvested and flow cytometry was used to assess migration. For primary cell chemotaxis, 1×10^6 cells/100 μl were added to the top well, and, following a 2 hour incubation at 37° C., polystyrene beads (15.0 μm diameter, Polysciences, Warrington, Pa., USA) were added to each well to facilitate normalization of the cell count. The cells were then stained for c-kit, F4/80, and/or CD11b expression and analyzed by flow cytometry. A ratio was generated and percent input migration was calculated.

huCCRL2 = molecular target: T2, huCCRL2 (Homo sapiens, UniProt O00421); assay: in vitro transwell chemotaxis, huCCRL2-HA/L1.2 transfectants; format: cell-based; details: range of doses; CXCL12 and CCL19 act via endogenous CXCR4 and CCR7
T2 construct: The coding regions of mCCRL2, huCCRL2, mCRTH2, and huCCR10 were amplified from genomic DNA; expressed in transfected cells
T2 sequence (O00421 1-344): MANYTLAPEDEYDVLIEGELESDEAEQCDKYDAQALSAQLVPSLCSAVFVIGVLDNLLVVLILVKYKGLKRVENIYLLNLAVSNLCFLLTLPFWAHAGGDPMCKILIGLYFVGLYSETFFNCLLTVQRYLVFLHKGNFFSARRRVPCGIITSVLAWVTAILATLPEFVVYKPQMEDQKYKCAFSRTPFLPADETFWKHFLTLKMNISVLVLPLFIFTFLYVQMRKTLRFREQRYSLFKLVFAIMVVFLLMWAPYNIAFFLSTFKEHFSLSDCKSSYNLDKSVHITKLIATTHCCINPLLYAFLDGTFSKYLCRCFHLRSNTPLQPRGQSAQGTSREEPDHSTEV
Experimental: as §2

bEND3 cells = assay: CCRL2 expression in TNFα-treated bEND3 endothelioma cells; format: cell-based, mouse; details: 24-hour treatment, 20 ng/ml
Source text: FIG. 22. […] Panel A. Robust upregulation of CCRL2 RNA by microarray analysis (Affymetrix®). Panel B. TNFα-treated bEND3 cells acquire CCRL2 surface protein (but not CMKLR1 expression) as determined by mAb staining and flow cytometry. Panel C. […] CCRL2/L1.2 and empty vector pcDNA3/L1.2 transfectants are shown as controls. The mean+/−SD of triplicate wells is shown for an individual experiment. A representative data set of 2 performed with similar results is shown for parts B and C, and n=1 for part A.
2005. J Exp Med 201: 509-515). […] We observed the same TNFα-mediated induction of protein expression by mAb staining […].

[3] = system: mouse peritoneal mast cells; assay: in vitro transwell chemotaxis, peritoneal mast cells; format: cell-based; details: SSChigh CD11b- c-kit+ cells
Experimental: as §2

mCCRL2 [4] = molecular target: T1, mCCRL2; assay: intracellular calcium mobilization, mCCRL2/L1.2 transfectants; format: cell-based; details: Fluo-4; CXCL12 acts via endogenous CXCR4
Experimental: as §1

[5] = molecular target: T3, mouse CCRL2 (chemokine (CC motif) receptor-like 2), untagged (mouse, UniProt O35457 1-360); assay: flow cytometry on WT peritoneal mast cells; competitor displaced: 10 nM His8-tagged serum form chemerin, anti-His6 PE [panel E]
T3 construct: whole, on cells; also called mCCRL2; mCCRL2/L1.2
T3 sequence (looked up): T1 sequence (O35457 1-360)

[6] = molecular target: T3, mouse CCRL2 (chemokine (CC motif) …); assay: flow cytometry on peritoneal mast cells (F4/80-, c-kit+ gate) of WT and CCRL2 KO mice, 10 nM His8-tagged isoform, anti-His6 PE [panel E]
[7] = molecular target: mouse CCRL2 (chemokine (CC motif) receptor-like 2), untagged (mouse) (UniProt O35457); assay: saturation binding of 125I-chemerin 21-148 to mCCRL2/L1.2 cells, one-site fit; saturation binding, single site
[8] = molecular target: T4, human CCRL2 with an engineered N-terminal hemagglutinin (HA) tag (human, UniProt O00421 1-344); assay: flow cytometry; untagged chemerin competes with 10 nM His8-tagged serum form human chemerin, detected with anti-His6 PE
T4 construct: whole, on cells; also called huCCRL2-HA; not shown: engineered N-terminal HA tag
T4 sequence (looked up): T2 sequence (O00421 1-344)

[9] = molecular target: T5, mouse CCRL2 with an engineered N-terminal hemagglutinin (HA) tag (mouse, UniProt O35457 1-360); assay: as above
T5 construct: whole, on cells; also called mCCRL2-HA; mCCRL2-HA/L1.2; not shown: engineered N-terminal HA tag
T5 sequence (looked up): T1 sequence (O35457 1-360)

Molecule: Nc1ncnc2c1ncn2[C@@H]1O[C@H](COP(=O)(O)OP(=O)(O)OP(=O)(O)O)[C@@H](O)[C@H]1O [ATP, reference compound]
- intracellular calcium mobilization [1]: responded

Molecule: IFNγ: cytokine purchased from Roche
- mCCRL2 protein expression on peritoneal macrophages (peritoneal macrophages): upregulated

Molecule: CXCL13: known chemoattractant
- transwell migration (mCCRL2 [2]): none stimulated

Molecule: CXCL9: known chemoattractant
- transwell migration (mCCRL2 [2]): none stimulated

Molecule: CCL28: known chemoattractant
- transwell migration (mCCRL2 [2]): none stimulated

Molecule: poly:IC
- mCCRL2 protein expression on peritoneal macrophages (peritoneal macrophages): upregulated

Molecule: CCL19: chemokine, positive control via CCR7
- transwell migration (huCCRL2): migrated
- transwell migration (mCCRL2 [2]): migrated

Molecule: CCL11: known chemoattractant
- transwell migration (mCCRL2 [2]): none stimulated

Molecule: CCL7: chemokine purchased from R&D Systems
- transwell migration (mCCRL2 [2]): did not induce migration

Molecule: TNFα
- mCCRL2 protein expression on peritoneal macrophages (peritoneal macrophages): upregulated
- CCRL2 mRNA (bEND3 cells): highly upregulated
- CCRL2 protein expression by mAb staining (bEND3 cells): induction

Molecule: SCF: stem cell factor, positive control for mast cell chemotaxis [reference compound]
- transwell migration [3]: migrated

Molecule: CCL5: chemokine purchased from R&D Systems
- transwell migration (mCCRL2 [2]): did not induce migration

Molecule: CXCL12: chemokine, positive control via CXCR4
- transwell migration (huCCRL2): migrated
- intracellular calcium mobilization (mCCRL2 [4]): responded
- transwell migration (mCCRL2 [2]): migrated

B1: CCL22: known chemoattractant (protein, UniProt O00626 25-93, looked up)
C-C motif chemokine 22: GPYGANMEDSVCCRDYVRYRLPLRVVKHFYWTSDSCPRPGVVLLTFRDKEICADPRVPWVKMILNKLSQ
- transwell migration (mCCRL2 [2]): none stimulated

B2: pro-form (1000 nM untagged chemerin isoform) (ligand)
chain: ADPELTEAQRRGLQVALEEFHKHPPVQWAFQETSVESAVDTPFPAGIFVRLEFKLQQTSCRKRDWKKPECKVRPNGRKRKCLACIKLGSEDKVLGRLVHCPIETQVLREAEEHQETQCLRVQRAGEDPHSFYFPGQFAFSKALPRSPH
notes: also called untagged pro-form human chemerin, His8 tag removed by carboxypeptidase A
- binding result [5]: binds

B3: carboxyl-terminal His8-tagged "pro-form" human chemerin (ligand)
chain: ADPELTEAQRRGLQVALEEFHKHPPVQWAFQETSVESAVDTPFPAGIFVRLEFKLQQTSCRKRDWKKPECKVRPNGRKRKCLACIKLGSEDKVLGRLVHCPIETQVLREAEEHQETQCLRVQRAGEDPHSFYFPGQFAFSKALPRSPHHHHHHHH
notes: Printed with an ellipsis, and with six H although called His8-tagged; also called His8-tagged chemerin isoform
- binding result [6]: binds

B4: radioiodinated human chemerin (residues 21-148) (ligand, UniProt Q99969 21-148, looked up)
chain: ELTEAQRRGLQVALEEFHKHPPVQWAFQETSVESAVDTPFPAGIFVRLEFKLQQTSCRKRDWKKPECKVRPNGRKRKCLACIKLGSEDKVLGRLVHCPIETQVLREAEEHQETQCLRVQRAGEDPHSF
modifications: 125I-labelled (radioiodinated), specific activity 97 Ci/g
- Kd [7]: 1.6 nM

B5: CCL25: known chemoattractant (protein, UniProt O15444 24-150, looked up)
C-C motif chemokine 25: QGVFEDCCLAYHYPIGWAVLRRAWTYRIQEVSGSCNLPAAIFYLPKRHRKVCGNPKSREVQRAMKLLDARNKVFAKLHHNTQTFQAGPHAVKKLSSGNSKLSSSKFSNPISSSKRNVSLLISANSGL
- transwell migration (mCCRL2 [2]): none stimulated

B6: untagged "serum form" human chemerin (His8 tag removed by carboxypeptidase A) (ligand)
chain: ADPELTEAQRRGLQVALEEFHKHPPVQWAFQETSVESAVDTPFPAGIFVRLEFKLQQTSCRKRDWKKPECKVRPNGRKRKCLACIKLGSEDKVLGRLVHCPIETQVLREAEEHQETQCLRVQRAGEDPHSFYFPGQFAPH
notes: The assays print 'untagged serum form chemerin' or 'serum form chemerin' without the species; Printed with an ellipsis; also called untagged serum form chemerin; untagged chemerin
- EC50 [8]: 7 nM
- EC50 [9]: 45 nM

B7: CCL27: known chemoattractant (protein, UniProt Q9Y4X3 25-112, looked up)
C-C motif chemokine 27: FLLPPSTACCTQLYRKPLSDKLLRKVIQVELQEADGDCHLQAFVLHLAQRSICIHPQNPSLSQWFEHQERKLHGTLPKLNFGMLRKMG
- transwell migration (mCCRL2 [2]): none stimulated

B8: CCL8: chemokine purchased from R&D Systems (protein, UniProt P80075 24-99, looked up)
C-C motif chemokine 8: QPDSVSIPITCCFNVINRKIPIQRLESYTRITNIQCPKEAVIFKTKRGKEVCADPKERWVRDSMKHLDQIFQNLKP
- transwell migration (mCCRL2 [2]): did not induce migration

B9: CCL17: known chemoattractant (protein, UniProt Q92583 24-94, looked up)
C-C motif chemokine 17: ARGTNVGRECCLEYFKGAIPLRKLKTWYQTSEDCSRDAIVFVTVQGRAICSDPNNKRVKNAVKYLQSLERS
- transwell migration (mCCRL2 [2]): none stimulated
